What was measured:
[1] = target: E.r. RT domain (group II intron maturase from Eubacterium rectale M104/1, residues 1-293) (Eubacterium rectale M104/1); experiment: SEC-MALS
[2] = target: E.r. RT domain (group II intron maturase from Eubacterium rectale M104/1, residues 1-293) (Eubacterium rectale M104/1); experiment: AUC
[3] = target: E.r. RT domain (group II intron maturase from Eubacterium rectale M104/1, residues 1-293) (Eubacterium rectale M104/1); experiment: SEC-MALS; remark: listed apart in the source
[4] = target: E.r. RT domain (group II intron maturase from Eubacterium rectale M104/1, residues 1-293) (Eubacterium rectale M104/1); experiment: AUC; remark: listed apart in the source

Measured: stoichiometry N

E.r. RT domain (group II intron maturase from Eubacterium rectale M104/1, residues 1-293) (domain or fragment)
2: all assays above
